Results as given in article PMC2908683.

How the values were obtained:
Test in all cases: immobilized peptide pulldown, SILAC LC-MS/MS
Conditions in all cases: reference: unphosphorylated peptide; sites Y595
[1] = molecular target: PLCγ1 (UniProt P19174)
[2] = molecular target: SLP-76 (UniProt Q13094)
[3] = molecular target: Nck2 (UniProt O43639)
[4] = molecular target: Nck1 (UniProt P16333)

Measured: fold change

ADAP 586-600 (from UniProt O15117) pY595 peptide
stronger: all assays above
